# Reference: the nanobody polyreactivity screen of Harvey et al. (2022)
# Assay: yeast display, Sf9 membrane polyspecificity reagent, FACS + sequencing; frameworks hold sequencing errors
# Procedure, shortened: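 Using colony PCR, genes from sorted yeast display clones were amplified, then sequenced on MiSeq at 2 × 250 and filtered by CDR length. The clones had been stained with 10% biotinylated, detergent-solubilized Sf9 membrane reagent for 1 hour at 4 °C and sorted by FACS into low and high (top ~1%) gates on anti-HA and streptavidin fluorescence. Polyreactivity labels come from the gate of origin.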
row,Sequence,polyreactivity (PSR sort gate)
1,QVQLVESGGGLVQAGGSLRLSCAASGRIFGYNAMGWSRQAPGKERELVAAISYSGGSTYYADSVKGRFTISRDNAKNTVYLQMNSLKPEDTAVYYCAARHPYYYHYDYWGQGTQVTVSS,high polyreactivity
2,QVQLVESGGGLVQAGGSLRLSCAASGSIFYSNAMGWYRQAPGKERELVAAINWSGVRTYYADSVKGRFTISRDNAKNTVYLQMNSLKPEDTAVYYCAAKTYQQQIVRPMYYWGQCTQVTVSS,high polyreactivity
3,QVQLVESGGGLVQAGGSLRLSCAASGIIFRGYVMGWYRQAPGKERELVADISRGGSTYYADSVKGRFTISRDNAKNTVYLQMNSQKPEDTAVYYCAKDYYACYWEMDYWGQGTQVTVSS,low polyreactivity
4,QVQLVESGGGLVQAGGSLRLICAATGFTFLFYDMGWYRQAPGKERALVAASTSDGSTYYADSVKGRFTISRDNAKNTVYLQMNSLKPEDTAVYYCNADEPDEAYLYQSDYWGQGTQVTVSS,low polyreactivity
5,QVQLVETGGGLVQAGGSLRLSCAPSGITFYVYAMGWYTQAPGKERELVAAISSGSSTYYADSVKGSFTISRDNAKNTVYLQMNSLKPEDTAVYYCAARYRKYLSEYCGQGTQVTVSS,high polyreactivity
6,QVQLVESGGGLVQAGGSLRLSCAASGSIFEPYAMGWYRQAPGKERELVAGIRKSGATTYYADSVKGRFTISRDNAKNTVYLQMNSLKPEDSAVYYCNAVVKSSSRGSISHPGYDYWGQGTQVTVSS,high polyreactivity
7,HVQLVESGGGLVQAGGSLRLSCAASGSTFYNYAMGWYRQAPGNERELVAGISSGVTTNYADSVKGRYTISRDNAKNTVYLQMNSLKPEDTAVYYCAAVHSWYARYLGGEDYDYWGQGTQVTVSS,low polyreactivity
8,QVQLVESGGGLVQAGGSLRLSCAASGSIFARNAMGWYRQAPGKERELVAAISWSGGRTYYADSVKGRFTISRDNAKNTVYLQMNSLKPEDTAVYYCATDTWWGQGTQVTVSS,high polyreactivity
9,QVQLVESGGGLVQAGCSLRLSCAASGGIFSAYVMGWYRQAPGKERELVAAITRRGGATYYADSVKGRFTISRDNAKNTVYLQMNSLKPEDTAVYYCAADDQYYTEYYYWGQGTQVTVSS,high polyreactivity
10,QVQLVESGGGLVQAGGSLRLSFAASGSTIGDNAMGWYRQAPGKERELVAVITSDTSTYYADSVKGRFTISRDNAMNTVYLQMNSLKPEDTAVYYCAADWGGLWFWYEYWGQGTQVTVSS,low polyreactivity
11,QVQLVESGGGLDQAGGSLRLSCAASGRILGYNALGWYRQAPGKERELVAAIRTGTTNYADSVKGRFTISRDNAKNTVYLQMNSLKPEDTAVYYCAALRPYNEGSSHLFRYDYWGQGTQVTVSS,low polyreactivity
12,QDQLVESGGGLVQAGGSLRLSCAASGFTFTRYAMGWYRQAPGKERELVAAITQRGGSTYYADSVKGRFTISRDNAKNTVYLQMNSLKPEDTAVYYCAAVQTRRWYGYLYNYWGQGTQVTVSS,high polyreactivity
13,QVQLVESGGGLVQAGGSLRLSCAASGITFRQYAMGWYRQAPGKERELVAVITSRGGTTYYAVSVKGRFTISRDNAKNTVYLQMNSLKPEDTAVYYCAARYPSYDFYYWGQGTQVTVSS,high polyreactivity
14,QVQLLDSGGGLVQAGGSLRLSCAASGRTIYYYAMGWYRQAPGKEREFVAAIYWHGGSTYYAESVKGRFTISRDNAKNTVYFQMNSLKPEDTAVYYCAAERYDRVGFDYWGQGTQVTVSS,low polyreactivity
15,QVQLVESGGGLDQAGGSLRLSCAGSGSIFTSYAMGWDIQAPGKERELVAAISQSGGDTYYADSVKGRFTISRDNAKNTVYLQMNSLKPEDTAVYYCAASVWYYPMDYWGQGTQVTVSS,low polyreactivity
16,QVQLVESGGGLVQAGGSLRLSCAASGSTFHFYAMGWYRQAPGKERELVASITSRGGNTHYADSVKGRFTISRDNAKNTVYLQMNRLKPEDTAVYYCAARGGWYGTYDYLGQGTQVTVSS,low polyreactivity
17,QVQLVESGGGLVQAGGSLRLSCAASGFTFLRYAMGWYRQAPGKERELVAAITGSGGSTYYADSVKGRFTISRDNAKNTVYLQMNSLKPEDTAVYYCSIVSKFTGDYGYWGQGTQVTVSS,high polyreactivity
18,QVQLVESGGGLVQAGGSLRLSCAASGFIFYYYAMGWYRQAPGKERELVASISSSGGRTYYADSVKGRFTISRDNAKNTVYLQMNSLKPEDTAVYYCAARGPYGYDLLYYWGQGTQVTVSS,high polyreactivity
19,QVQLVESGGGLVQAGGSLGLSCAASGYIFGIYAMGWYRQAAGKERELVAAISSDSTYYADSVKGRFTISRDNAKNTVYLQMNSLKPEDTAVYYCAPYWFNQDYEFEYWGQGTQVTVSS,high polyreactivity
20,QVQLVESGGGLVQAGGSLRLSCDASGRIFGYTMGWYIQAPGKERELVAAISKSGGSTYYADSVKGRFTISRDNAKNTVYLQMNSLKPEDTAVYYCNKPQRILYDYWGQGTQVTVSS,high polyreactivity
21,QVQLVESWAGLVQAGGSLRLSCAASGRTFAYNAMGGYRQAPGSERELVAAITWSGDSTYYADSVKGRFTISRDNAKKTVYLQMNSQKPEDTAVNYCAAGLVFHYYAPKSYYLGYDYWGQGTQVTVSS,low polyreactivity

row,Sequence,polyreactivity (PSR sort gate)
1,QVQLVESAAGLVQAGGSLRLSCAASGIIFPRNVMGWYRQAPGKERELVAAITYSGGRTYYADSVKGRFTISRDNAKNTVYLQMNSLKPEDTAVYYCNADFRSQPYDYWGQGTQVTVSS,low polyreactivity
2,QVQLVESGGGLVQAGGSLRLSCAASGFIFSYCAKGRYRQAPGKERELVAAISRSGGRTYYADSVKGRYTISRDNAKNTVYLQMNSLKPEDTAVYYCAAPVSLRPIYDYWGQGTQVTVSS,high polyreactivity
3,QVQLVESGGGLVQAGGSLRLSCAASGRIFSTYAMVWYREAPGKEMELVAAINKIGGSTYYADSVKGRFTISRDNAKNTVYLQMNSLKPEDTAVYYCAADAPYYPFRRYYYWGQGTQVTVSS,low polyreactivity
4,QVQLEESGGGLVQAGGSLRLSCAASGSIFSYNAMGWYRQAPGKERELVAAISRGSGSTYYADSVKGRFTISRDNAKNTVYLQMNSLKPEDTAVYYCATRSIRVLPDVYRKADDYWGQGTQVTVSS,low polyreactivity
5,QVQLVESGGGLVQAGGSLRLSCAASGSTFKYYAMVWYRQAPGKERELVAAISRSGGRTYYADSVKGRFTISRDNAKNTVYLQMNSLKPEDTAVSLCNAVVARVNVRGTPAFDYWGQGTQVTVSS,high polyreactivity
6,QVQLVESGGGLVQAGGSLRLSCAASGRIFSRYAMGWYRQAPGKERELVAAINKSGGSTYYADSVKGRFTISRDNAKNTVYLQMNSLKPEDTAVYYCAAALGRRRTGYDYWGQGTQGTVSS,high polyreactivity
7,QVQLVESGGGLVQAGGSLRLSCAASGSTFRQYAMGWYRQAPGKERELVAAISSGGRTNYADSVKGRFTISRDNAKNTVYLQMNSLKPEDTAVYYCAADIRRRVPVRGYYYWGQGTQVTVSS,high polyreactivity
8,QVQLGESGGGLVQAGGSLRLSCAASGSIFNYYTMGWYRQAPGKERELVAAISSSGGSTYYADSVKGRFTISRDNAKNTVYLQMNSRKPEDTAVYYCAALGRYFTSAGGYWGQGTQVTVSS,high polyreactivity
9,QVQLVESGGGLVQAGGSLRLSCAASGLNFRAYAMGWYRQAPGKERELVAAITWNGGSTNYADSVKGRFTISRDNAKNTVYLQMNSLKPEDTAVYYCNKYRISGLSKFYYWGQGTQVTVSS,high polyreactivity
10,QVQLVESGGGLVQAGGILRLSCAASGLIFTYYAMGWYRQAPWKERELLAAINYSGGSTYYADSVKGRFTISRDNAKNTVYLQMNSLKPEDTAVYYCNAGYGEHPLSGYEYWGQSTQVTVSS,low polyreactivity
11,QVQLVESGGGLVQAGGSLRLSCAASGRINLYNAMGWYRQAPRKEMELVAVISYRGGSTYYADSVKGRFTISRENAKNTVYLQMNSLKPDDTAVYYCNKDKSYSGTRYDYWGQGTQVTVSS,high polyreactivity
12,QVQLVESGGGLVQAGGSLRLSCAASGSIFGRNAMGWYIQAPGKERELVAAINSGGSTNYADSVKGRFTISRDNAKNTVYLQMNSLKPEDTAVYFCAARTYSSGRYYGYVAFYYWGQGTQVTVSS,high polyreactivity
13,QVQLVESGGGLVQAGGSLRLSCAASGGIFYVNAMGWYRQAPGKERELVAAITSDGVSTYYADSVKGRFTISRDNAKNTVYLQMNSLKPEDTAVYYCAADNGGAGYYYGYVWYDYWGQGTQVTVSS,low polyreactivity
14,QVQLVESGGGLVQAGGSLRLSCAASGLIIRYYAMGWYRQAPGKERELVAAISYNGGSTYYADSVKGRFTISRDNAKNTVYLQMNSLKPEDTAVYYCAARGRYRIGPGRYGKRYDYWGQGTQVTVSS,high polyreactivity
15,QVQLVESGGGLVQAGGSLRLSCAASGSTFGNYDIGWYRQAPGKERELVAAISFSGGSTYYADSVKGRFTISRDNAKNTVYLQMNSLIPEDTAVYYCAARSNYRMDYWGQGTQVTVSS,high polyreactivity
16,QVQLVESGGGLVQAGGSLRLSCAASGSIIAGYAMGWYRQAPGKERELVAAISQRGTSTYYADSVKGRFTISRDIAKNTVYLQMNSLKPEDTSVYYCAARVVSRMDYWGQGTQVTVSS,high polyreactivity
17,QVQLVESGGCLVKAGGSLRLSCAASGSIFGHYAMGWYRQAPGKERELVASIDSGGRTNYADSVKGRFTISLDNAKNTVYLQMISLKPEDTGVYYCNTTSVKTRGYGYWGQGSQVTVSS,low polyreactivity
18,QVQLVESGGGLVQAGGSLRLSCAASGRTSYTNAMGWYRQAPGKERELVAAINYSGGSTYYADSVKGRFTISRDNAKNTVYLQMNSLKPEDTAVYYCAADWDWWYQEFDYWGQGTQVTVSS,high polyreactivity
19,QVQLVESGGGLVQAGGSLRLSCAASGSIFWSYAMGWYIQAPGTERELVAAITTDGGTNYADSVKGRFTISLDNAKNTVYLLMKSLKPDDTAVYYCAGDTDPNPQIDYTLTMDYWGQGTEVTVSS,low polyreactivity
20,QVQLVESGGGLVQAGGSLRISCAASGFIFVTYAMGWYRQAPGKERELVAAITNSGGTTYYADSVKGRFTISRDNAKNTVYLQMNSLKPEDTAVYYCNKPYGAETAHREFDYWGQGTQVTVSS,low polyreactivity
